These results are taken from patent US20220332804A1 (CSL INNOVATION, published 2022).

Assay in all cases: SPR, antibody captured, C2 as analyte;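 further: biacore SPR at 37 °C, anti-C2 mAbs captured via goat anti-human IgG on CM5 chips, double-referenced sensorgrams fit to a 1:1 kinetic or steady-state model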
In general terms: Surface plasmon resonance follows binding to a sensor surface in real time, without labels.

The target of one test is T1, human C2 D282A (human, UniProt P06681 21-752).
T1 sequence: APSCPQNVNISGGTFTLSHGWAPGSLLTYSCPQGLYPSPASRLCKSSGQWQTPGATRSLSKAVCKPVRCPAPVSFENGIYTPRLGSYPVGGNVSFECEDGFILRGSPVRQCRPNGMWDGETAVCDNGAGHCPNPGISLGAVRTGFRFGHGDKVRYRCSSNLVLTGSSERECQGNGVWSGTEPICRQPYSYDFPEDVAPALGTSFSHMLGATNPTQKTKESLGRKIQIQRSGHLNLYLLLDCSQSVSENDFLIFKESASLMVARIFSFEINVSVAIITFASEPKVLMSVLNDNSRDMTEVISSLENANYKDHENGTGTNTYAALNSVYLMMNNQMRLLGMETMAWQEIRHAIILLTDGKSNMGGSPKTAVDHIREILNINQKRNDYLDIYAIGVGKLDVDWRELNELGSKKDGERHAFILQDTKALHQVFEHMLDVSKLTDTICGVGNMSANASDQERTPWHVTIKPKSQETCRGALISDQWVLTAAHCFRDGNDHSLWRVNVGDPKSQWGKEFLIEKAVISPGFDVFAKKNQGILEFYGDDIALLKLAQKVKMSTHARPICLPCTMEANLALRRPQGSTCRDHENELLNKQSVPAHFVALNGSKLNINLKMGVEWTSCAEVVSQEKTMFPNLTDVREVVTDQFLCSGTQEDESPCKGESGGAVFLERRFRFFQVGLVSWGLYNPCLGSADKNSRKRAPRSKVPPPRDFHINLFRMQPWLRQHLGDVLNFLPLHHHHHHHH

The next test has as its target T2, human C2 Y328A (human, UniProt P06681 21-752).
T2 sequence: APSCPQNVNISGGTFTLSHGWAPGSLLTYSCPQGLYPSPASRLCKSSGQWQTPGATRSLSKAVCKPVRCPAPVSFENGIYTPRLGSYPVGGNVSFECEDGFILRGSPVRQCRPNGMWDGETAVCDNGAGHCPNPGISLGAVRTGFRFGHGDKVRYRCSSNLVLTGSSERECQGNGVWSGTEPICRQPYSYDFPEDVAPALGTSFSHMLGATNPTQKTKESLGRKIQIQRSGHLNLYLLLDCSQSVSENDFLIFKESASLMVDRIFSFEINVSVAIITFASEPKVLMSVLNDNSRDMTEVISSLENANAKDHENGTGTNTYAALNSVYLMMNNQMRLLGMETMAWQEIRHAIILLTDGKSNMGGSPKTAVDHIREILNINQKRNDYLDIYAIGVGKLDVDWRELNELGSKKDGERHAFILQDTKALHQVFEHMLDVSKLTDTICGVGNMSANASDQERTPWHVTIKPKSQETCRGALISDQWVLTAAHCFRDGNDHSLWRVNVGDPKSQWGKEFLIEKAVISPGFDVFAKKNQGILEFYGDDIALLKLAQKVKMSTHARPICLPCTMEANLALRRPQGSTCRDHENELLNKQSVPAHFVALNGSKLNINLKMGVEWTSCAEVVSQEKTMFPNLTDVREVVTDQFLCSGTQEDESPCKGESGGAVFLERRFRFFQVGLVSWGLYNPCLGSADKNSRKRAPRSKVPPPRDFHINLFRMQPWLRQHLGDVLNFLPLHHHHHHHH

For a further test, the target named is T3, human C2 K430A (human, UniProt P06681 21-752).
T3 sequence: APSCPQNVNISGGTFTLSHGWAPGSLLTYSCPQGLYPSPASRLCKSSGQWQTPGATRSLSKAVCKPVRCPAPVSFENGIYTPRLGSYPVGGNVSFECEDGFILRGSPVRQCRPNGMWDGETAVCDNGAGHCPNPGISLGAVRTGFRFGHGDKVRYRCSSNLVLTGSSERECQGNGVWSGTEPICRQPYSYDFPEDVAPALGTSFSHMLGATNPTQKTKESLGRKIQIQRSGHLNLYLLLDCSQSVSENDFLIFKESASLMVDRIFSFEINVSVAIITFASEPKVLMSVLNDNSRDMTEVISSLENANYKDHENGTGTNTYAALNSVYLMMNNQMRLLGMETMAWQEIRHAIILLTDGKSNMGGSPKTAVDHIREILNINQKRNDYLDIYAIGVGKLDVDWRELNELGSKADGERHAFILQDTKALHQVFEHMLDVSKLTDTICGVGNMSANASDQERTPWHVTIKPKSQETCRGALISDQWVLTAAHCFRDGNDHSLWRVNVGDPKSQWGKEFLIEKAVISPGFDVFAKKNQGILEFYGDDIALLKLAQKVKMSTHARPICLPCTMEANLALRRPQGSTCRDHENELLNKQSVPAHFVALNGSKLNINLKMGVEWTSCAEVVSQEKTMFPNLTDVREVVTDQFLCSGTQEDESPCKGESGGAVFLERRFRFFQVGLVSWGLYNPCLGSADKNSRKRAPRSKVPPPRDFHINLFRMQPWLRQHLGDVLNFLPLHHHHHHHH

A further test concerns the target T4, human C2 A444S (human, UniProt P06681 21-752).
T4 sequence: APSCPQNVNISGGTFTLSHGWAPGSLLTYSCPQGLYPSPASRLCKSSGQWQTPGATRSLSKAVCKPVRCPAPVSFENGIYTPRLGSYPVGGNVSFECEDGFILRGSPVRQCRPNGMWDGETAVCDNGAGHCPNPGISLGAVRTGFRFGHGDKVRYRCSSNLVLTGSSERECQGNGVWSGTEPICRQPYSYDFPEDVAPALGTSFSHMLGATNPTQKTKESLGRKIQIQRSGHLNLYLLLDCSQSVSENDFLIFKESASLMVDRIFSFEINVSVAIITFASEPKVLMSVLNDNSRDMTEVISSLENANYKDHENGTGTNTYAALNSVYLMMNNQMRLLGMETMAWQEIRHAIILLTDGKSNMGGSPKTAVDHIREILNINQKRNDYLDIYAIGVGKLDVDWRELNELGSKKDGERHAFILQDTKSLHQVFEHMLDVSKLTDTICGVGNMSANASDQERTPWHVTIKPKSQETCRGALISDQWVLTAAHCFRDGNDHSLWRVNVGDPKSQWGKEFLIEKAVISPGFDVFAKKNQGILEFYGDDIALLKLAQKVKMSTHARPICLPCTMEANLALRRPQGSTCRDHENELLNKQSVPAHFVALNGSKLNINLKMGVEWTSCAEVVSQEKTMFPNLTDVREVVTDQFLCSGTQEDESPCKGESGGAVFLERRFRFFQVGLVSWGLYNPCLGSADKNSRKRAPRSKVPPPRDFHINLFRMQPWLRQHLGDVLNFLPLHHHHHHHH

B1: RF16-226 (antibody, human IgG4 S228P, lambda)
heavy: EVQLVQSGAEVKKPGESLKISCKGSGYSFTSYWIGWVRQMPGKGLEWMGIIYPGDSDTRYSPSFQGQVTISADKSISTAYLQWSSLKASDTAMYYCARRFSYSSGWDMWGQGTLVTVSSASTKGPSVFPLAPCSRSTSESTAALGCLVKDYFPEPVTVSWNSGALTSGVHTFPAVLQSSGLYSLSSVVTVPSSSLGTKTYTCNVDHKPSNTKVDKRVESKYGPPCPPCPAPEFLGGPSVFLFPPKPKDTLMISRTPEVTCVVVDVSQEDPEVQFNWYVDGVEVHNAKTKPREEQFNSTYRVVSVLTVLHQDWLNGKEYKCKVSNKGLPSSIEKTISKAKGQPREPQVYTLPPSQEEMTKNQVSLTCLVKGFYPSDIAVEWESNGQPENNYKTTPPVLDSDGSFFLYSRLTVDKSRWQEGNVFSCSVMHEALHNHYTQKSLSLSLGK
light: SYELTQPPSVSVSPGQTARITCSGDALTSKYVAWYQQKSGLAPLLVIYEDTRRPSGIPAKFSGSSSGSVATLTISGAHGDDEADYYCYSTDASGHQRVFGGGTKLTVLSQPKAAPSVTLFPPSSEELQANKATLVCLISDFYPGAVTVAWKADGSPVKAGVETTKPSKQSNNKYAASSYLSLTPEQWKSHRSYSCQVTHEGSTVEKTVAPTECS
notes: pH-dependent anti-C2 antibody from a phage display library; also called WT
What is called Kd is a measure of binding affinity in units of concentration. Low readings indicate higher affinity, high ones lower affinity. As to B1, the dissociation constant Kd with human C2 D282A came out at 8.9 nM; in the test with human C2 Y328A, 78.4 nM; in the test with human C2 K430A, 62 nM; with human C2 A444S it was 19.8 nM.
